Reference: patent US20200317768A1 (published 2020)
Positions count from the first letter of the chain named. Numbers in names are those of the source.

T1: cynomolgus monkey FcγRIIIaS extracellular domain, C-terminal His-tag (cynomolgus monkey, UniProt Q8SPW2 21-206 at identity 1.00))
T1 construct: also called cyno FcγRIIIaS; FcgRIIIaS
T1 chain: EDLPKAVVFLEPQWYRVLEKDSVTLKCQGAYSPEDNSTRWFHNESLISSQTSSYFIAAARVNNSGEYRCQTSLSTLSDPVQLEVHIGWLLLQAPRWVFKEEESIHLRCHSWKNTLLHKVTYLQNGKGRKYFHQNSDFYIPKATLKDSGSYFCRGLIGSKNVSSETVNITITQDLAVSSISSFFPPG

T2: human FcγRIIaH extracellular domain, C-terminal His-tag (human, UniProt P12318 34-217)
T2 construct: also called human FcγRIIa (type H); FcgRIIaH
T2 sequence: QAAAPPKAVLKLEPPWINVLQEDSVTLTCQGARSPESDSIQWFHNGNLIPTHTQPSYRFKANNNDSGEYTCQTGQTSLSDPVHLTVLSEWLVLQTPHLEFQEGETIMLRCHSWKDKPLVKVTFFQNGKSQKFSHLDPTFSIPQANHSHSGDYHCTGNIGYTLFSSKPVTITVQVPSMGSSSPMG

T3: human FcγRIIaR extracellular domain, C-terminal His-tag (human, UniProt P12318 34-217)
T3 construct: also called human FcγRIIa (type R); FcgRIIaR
T3 chain: T2 sequence with H134R

T4: cynomolgus monkey FcγRIIb extracellular domain, C-terminal His-tag (cynomolgus monkey)
T4 construct: also called cyno FcγRIIb; cynoFcγRIIb
T4 chain: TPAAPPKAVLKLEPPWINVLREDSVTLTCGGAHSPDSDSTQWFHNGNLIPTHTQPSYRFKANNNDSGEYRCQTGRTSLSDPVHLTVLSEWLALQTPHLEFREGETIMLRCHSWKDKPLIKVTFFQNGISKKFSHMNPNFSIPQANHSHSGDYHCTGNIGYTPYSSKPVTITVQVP

T5: cynomolgus monkey FcγRIIa2 extracellular domain, C-terminal His-tag (cynomolgus monkey)
T5 construct: also called cyno FcγRIIa2; FcgRIIa2
T5 chain: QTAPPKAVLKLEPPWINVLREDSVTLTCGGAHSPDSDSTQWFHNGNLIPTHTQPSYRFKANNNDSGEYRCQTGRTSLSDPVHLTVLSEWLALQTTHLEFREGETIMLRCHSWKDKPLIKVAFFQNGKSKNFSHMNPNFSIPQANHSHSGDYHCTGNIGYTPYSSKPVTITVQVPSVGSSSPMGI

T6: human FcγRIIb extracellular domain, C-terminal His-tag (human, UniProt P31994 43-217)
T6 construct: also called FcgRIIb (human)
T6 sequence: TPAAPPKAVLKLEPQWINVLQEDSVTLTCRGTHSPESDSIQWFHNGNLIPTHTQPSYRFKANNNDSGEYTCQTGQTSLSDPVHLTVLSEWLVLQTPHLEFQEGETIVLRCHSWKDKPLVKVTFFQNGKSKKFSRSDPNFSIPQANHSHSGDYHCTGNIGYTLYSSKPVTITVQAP

T7: cynomolgus monkey FcγRIIa1 extracellular domain, C-terminal His-tag (cynomolgus monkey)
T7 construct: also called cyno FcγRIIa1; FcgRIIa1
T7 chain: T5 chain with T95P, A121T, K127I, S128A, N130K, N135D, Q142R

B1: MS_M103205H795-SG1/M103202L889-SK1 (antibody, human IgG1, kappa)
heavy: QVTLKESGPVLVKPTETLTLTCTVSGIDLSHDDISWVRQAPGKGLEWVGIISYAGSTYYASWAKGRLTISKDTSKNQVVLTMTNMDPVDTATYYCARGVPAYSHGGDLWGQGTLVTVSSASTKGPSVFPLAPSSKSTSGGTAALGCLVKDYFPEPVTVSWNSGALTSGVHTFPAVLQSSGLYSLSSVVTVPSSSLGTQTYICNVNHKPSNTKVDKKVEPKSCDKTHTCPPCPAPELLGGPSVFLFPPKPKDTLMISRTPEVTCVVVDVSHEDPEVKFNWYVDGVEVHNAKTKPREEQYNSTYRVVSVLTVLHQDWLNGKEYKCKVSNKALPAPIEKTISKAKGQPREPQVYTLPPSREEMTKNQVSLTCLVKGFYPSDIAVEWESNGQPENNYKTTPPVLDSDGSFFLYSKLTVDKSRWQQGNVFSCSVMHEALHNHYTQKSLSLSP
light: DIVMTQSPATLSLSPGERATLSCTSSQSVYHANWLSWFQQKPGQPPKLLIYWASTLAYGVPSRFSGSGSGTDFTLTISSLQPEDAATYYCAGGYGGGRYAFGQGTKVEIKRTVAAPSVFIFPPSDEQLKSGTASVVCLLNNFYPREAKVQWKVDNALQSGNSQESVTEQDSKDSTYSLSSTLTLSKADYEKHKVYACEVTHQGLSSPVTKSFNRGEC
notes: also called MS1032LO06-SG1
B2: M103205H795-MY009/M103202L889-SK1 (antibody, human IgG1, kappa)
heavy: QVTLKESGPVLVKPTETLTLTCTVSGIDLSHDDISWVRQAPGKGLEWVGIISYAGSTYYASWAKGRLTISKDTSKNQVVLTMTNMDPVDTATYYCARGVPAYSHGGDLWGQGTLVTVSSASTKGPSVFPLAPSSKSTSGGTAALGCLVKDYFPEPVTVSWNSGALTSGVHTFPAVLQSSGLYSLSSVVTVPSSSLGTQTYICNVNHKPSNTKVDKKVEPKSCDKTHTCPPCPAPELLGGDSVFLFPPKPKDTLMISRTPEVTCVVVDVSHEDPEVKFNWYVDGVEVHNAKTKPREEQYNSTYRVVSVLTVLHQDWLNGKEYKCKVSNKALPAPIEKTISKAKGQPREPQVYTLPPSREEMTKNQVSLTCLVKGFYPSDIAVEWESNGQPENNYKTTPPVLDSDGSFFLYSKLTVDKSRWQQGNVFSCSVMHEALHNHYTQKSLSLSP
light: B1 light
notes: CH MY009 = SG1 with P238D (EU numbering); also called MS1032LO06-MY009

Columns and labels:
Assay in all cases: SPR; KD of SG1 / KD of variant;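 also: relative to parent M103205H795-SG1 carrying the SG1 human heavy chain constant region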
[1] = target: T1, cynomolgus monkey FcγRIIIaS …
Experimental: (§1) The kinetic analysis of interactions between these antibodies and FcγR was carried out using BIACORE® T200 or BIACORE® 4000 (GE Healthcare). HBS-EP+ (GE Healthcare) was used as the running buffer, and the measurement temperature was set to 25° C. A chip produced by immobilizing Protein A. Protein A/G or mouse anti-human IgG kappa light chain (BD Biosciences) onto a Series S Sensor Chip CM4 or CM5 (GE Healthcare) by the amine-coupling method was used. […] After the measurement, the antibody captured on the chip was washed off by allowing reaction with 10 mM glycine-HCl, pH1.5 and 25 mM NaOH so that the chip was regenerated and used repeatedly. The sensorgrams obtained as measurement results were analyzed by the 1:1 Langmuir binding model using the BIACORE® Evaluation Software to calculate the binding rate constant ka (L/mol/s) and dissociation rate constant kd (l/s), and the dissociation constant KD (mol/L) was calculated from these values. […] Regarding such interactions, KD values were calculated using the following 1:1 binding model described in BIACORE® T100 Software Handbook BR1006-48 Edition AE.

[2] = target: T2, human FcγRIIaH extracellular domain, …
Experimental: as §1

[3] = target: T3, human FcγRIIaR extracellular domain, …
Experimental: as §1

[4] = target: T4, cynomolgus monkey FcγRIIb extracellular …
Experimental: as §1

[5] = target: T5, cynomolgus monkey FcγRIIa2 …
Experimental: as §1

[6] = target: T6, human FcγRIIb extracellular domain, …
Experimental: as §1

[7] = target: T7, cynomolgus monkey FcγRIIa1 …
Experimental: as §1

Binder | KD fold (SG1 = 1) [1] [fold] | KD fold (SG1 = 1) [2] [fold] | KD fold (SG1 = 1) [3] [fold] | KD fold (SG1 = 1) [4] [fold] | KD fold (SG1 = 1) [5] [fold] | KD fold (SG1 = 1) [6] [fold] | KD fold (SG1 = 1) [7] [fold]
B1 | 1 | 1 | 1 | 1 | 1 | 1 | 1
B2 | 0.004 | 0.01 | 0.1 | 0.4 | 0.2 | 3.3 | 0.2
